Changes are numbered by the printed parent chain.
T1: huSOX3 with C-terminal 6×His-tag, produced by Biointron (human, UniProt P41225 1-446)
T1 sequence: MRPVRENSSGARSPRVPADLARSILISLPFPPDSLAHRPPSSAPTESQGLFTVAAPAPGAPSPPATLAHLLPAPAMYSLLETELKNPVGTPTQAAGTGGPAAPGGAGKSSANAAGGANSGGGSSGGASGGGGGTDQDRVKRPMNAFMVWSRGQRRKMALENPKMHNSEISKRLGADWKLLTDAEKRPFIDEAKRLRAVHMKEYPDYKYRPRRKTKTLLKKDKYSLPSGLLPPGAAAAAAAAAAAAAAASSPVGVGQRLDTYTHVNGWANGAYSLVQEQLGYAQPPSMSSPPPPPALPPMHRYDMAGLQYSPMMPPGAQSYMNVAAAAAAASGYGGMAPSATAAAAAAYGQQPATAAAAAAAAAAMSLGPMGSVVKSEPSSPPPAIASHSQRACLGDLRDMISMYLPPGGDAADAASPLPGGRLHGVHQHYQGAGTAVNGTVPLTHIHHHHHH

B1: 3A2.012 (Flag-tag - 3A2 - GS linker - RNF4 71-190) (other)
chain: DYKDDDDKTREVQLVESGGEQVQPGSSLKLSCSVSGLMISGHAMSWVRQVPGAGPEWVAVDNPGGKKNYIDSVAGRFTIARDNDANSLSLVMNGLRPEDTARYFCARVLSFKIYEGDKWALEWDYRGPGTQVTVSSGSDERRRPRRNARRLPQDHADSCVVSSDDEELSRDRDVYVTTHTPRNARDEGATGLRPSGTVSCPICMDGYSEIVQNGRLIVSTECGHVFCSQCLRDSLKNANTCPTCRKKINHKRYHPIYI
B2: 3A2.005 (Flag-tag - 3A2 - GS linker - SPOP 167-374) (other)
chain: DYKDDDDKTREVQLVESGGEQVQPGSSLKLSCSVSGLMISGHAMSWVRQVPGAGPEWVAVDNPGGKKNYIDSVAGRFTIARDNDANSLSLVMNGLRPEDTARYFCARVLSFKIYEGDKWALEWDYRGPGTQVTVSSGSSVNISGQNTMNMVKVPECRLADELGGLWENSRFTDCCLCVAGQEFQAHKAILAARSPVFSAMFEHEMEESKKNRVEINDVEPEVFKEMMCFIYTGKAPNLDKMADDLLAAADKYALERLKVMCEDALCSNLSVENAAEILILADLHSADQLKTQAVDFINYHASDVLETSGWKSMVVSHPHLVAEAYRSLASAQCPFLGPPRKRLKQS
B3: 3A2.007 (Flag-tag - 3A2 - GS linker - CHIP 128-303) (other)
chain: DYKDDDDKTREVQLVESGGEQVQPGSSLKLSCSVSGLMISGHAMSWVRQVPGAGPEWVAVDNPGGKKNYIDSVAGRFTIARDNDANSLSLVMNGLRPEDTARYFCARVLSFKIYEGDKWALEWDYRGPGTQVTVSSGSRLNFGDDIPSALRIAKKKRWNSIEERRIHQESELHSYLSRLIAAERERELEECQRNHEGDEDDSHVRAQQACIEAKHDKYMADMDELFSQVDEKRKKRDIPDYLCGKISFELMREPCITPSGITYDRKDIEEHLQRVGHFDPVTRSPLTQEQLIPNLAMKEVIDAFISENGWVEDY
B4: 3A2.011 (Flag-tag - TRIM21 2-85 - GS linker - 3A2) (other)
chain: DYKDDDDKTRASAARLTMMWEEVTCPICLDPFVEPVSIECGHSFCQECISQVGKGGGSVCPVCRQRFLLKNLRPNRQLANMVNNLKEISQEAREGSEVQLVESGGEQVQPGSSLKLSCSVSGLMISGHAMSWVRQVPGAGPEWVAVDNPGGKKNYIDSVAGRFTIARDNDANSLSLVMNGLRPEDTARYFCARVLSFKIYEGDKWALEWDYRGPGTQVTVSS
B5: 2E8 (anti-huSOX2 VHH antibody clone) (VHH)
VHH: EVQLVESGGGLVQPGGSLRLSCAASGFTLDYYGMGWFRQAPGKEREFVAAISRSGGSTVYADSVKGRFTISADNSKNTAYLQMNSLKPEDTAVYYCAREVVRGGINYWGQGTLVTVSS
notes: Clone from the VHH phage library panning; tested as individual colony in ELISA screening
B6: 1C4 (anti-huSOX2 VHH antibody clone) (VHH)
VHH: EVQLVESGGGLVQPGGSLRLSCAASGGGFRGNAVMGWFRQAPGKERELVAAIRGSGEDTYYADSVKGRFTISADNSKNTAYLQMNSLKPEDTAVYYCAGGWRRGYFQDWGQGTLVTVSS
notes: as for B5
B7: 1C2 (anti-huSOX2 VHH antibody clone) (VHH)
VHH: EVQLVESGGGLVQPGGSLRLSCAASGSTYTTYSMGWFRQAPGKEREFVAAIRWSGGTTYYADSVKGRFTISADNSKNTAYLQMNSLKPEDTAVYYCASRVDDRVWGQGTLVTVSS
notes: as for B5
B8: 1C11 (anti-huSOX2 VHH antibody clone) (VHH)
VHH: B7 VHH with A49G
notes: as for B5
B9: 1C12 (anti-huSOX2 VHH antibody clone) (VHH)
VHH: B7 VHH with T57S, Y59H
notes: as for B5
B10: 1A9 (anti-huSOX2 VHH antibody clone) (VHH)
VHH: B7 VHH with S27R, Y29F, T30S, S54T, G55A
notes: as for B5
B11: 1A5 (anti-huSOX2 VHH antibody clone) (VHH)
VHH: B7 VHH with A49G, R52H, T57R
notes: as for B5
B12: 1A11 (anti-huSOX2 VHH antibody clone) (VHH)
VHH: B7 VHH with R52H, T57G
notes: as for B5
B13: 1B9 (anti-huSOX2 VHH antibody clone) (VHH)
VHH: EVQLVESGGGLVQPGGSLRLSCAASGLTFSTYSMGWFRQAPGKEREFVAAITWNSGRRTYYADSVKGRFTISADNSKNTAYLQMNSLKPEDTAVYYCASRVDDRVWGQGTLVTVSS
notes: as for B5
B14: 2E8 with N-terminal NanoLuc tag (pNLF1-N-2E8), expressed in HEK293T cells (VHH)
VHH: B5 VHH
notes: NanoBRET donor construct; not shown: NanoLuc tag
B15: 3F11 with N-terminal NanoLuc tag (pNLF1-N-3F11), expressed in HEK293T cells (VHH)
VHH: DVQLVESGGGLVQPGGSLRLSCATSGFTFSSSTMSWVRQVPGAGPEWVAVDNPGGKKNYIDSVAGRFTIARDNDANSLSLVMNGLRPEDTARYFCARVLSFKIYEGDKWALEWDYRGPGTQVTVSS
notes: as for B14
B16: 3H9 with N-terminal NanoLuc tag (pNLF1-N-3H9), expressed in HEK293T cells (VHH)
VHH: QVQLVESGGEQVQPGSSLKLSCSVSGLMISGHAMSWVRQVPGAGPEWVAVDNPGGKKNYIDSVAGRFTIARDNDANSLSLVMNGLRPEDTARYFCARVLSFKIYGGDKWALEWDYRGPGTQVTVSS
notes: as for B14
B17: 3F11 (anti-huSOX2 VHH antibody) (VHH)
VHH: B15 VHH
notes: Selected from a naive sdAb phage display library (Genscript Probio)

Biological target: huSOX2.V5 (huSOX2 with a V5-tag at the C-terminus) (human, UniProt P48431 1-317)
Sequence (P48431 other isoform, or with tags, fused parts or gaps): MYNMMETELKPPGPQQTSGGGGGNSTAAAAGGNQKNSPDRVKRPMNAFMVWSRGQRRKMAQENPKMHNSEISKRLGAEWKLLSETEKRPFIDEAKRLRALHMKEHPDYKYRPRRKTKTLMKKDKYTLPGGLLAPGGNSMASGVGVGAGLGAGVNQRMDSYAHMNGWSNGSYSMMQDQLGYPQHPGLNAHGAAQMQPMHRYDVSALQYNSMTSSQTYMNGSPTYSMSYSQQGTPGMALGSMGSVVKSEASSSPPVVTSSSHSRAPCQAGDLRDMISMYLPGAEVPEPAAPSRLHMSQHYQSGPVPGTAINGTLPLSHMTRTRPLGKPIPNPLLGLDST
Assay: cell-based or functional assay

| Binder | SOX2 degradation capability compared to the control group (Mock) (HEK-293 cells) |
| --- | --- |
| B1 | ≥ 70% |
| B2 | ≥ 70% |
| B3 | ≥ 70% |
| B4 | ≥ 70% |

Biological target: T2, human SRY-box transcription factor 2 (huSOX2) with C-terminal 6×His-tag, produced by Biointron (human, UniProt P48431 1-317)
T2 construct: also called huSOX2 protein; biotinylated huSOX2 (Biointron)
T2 sequence (P48431 other isoform, or with tags, fused parts or gaps limits assumed): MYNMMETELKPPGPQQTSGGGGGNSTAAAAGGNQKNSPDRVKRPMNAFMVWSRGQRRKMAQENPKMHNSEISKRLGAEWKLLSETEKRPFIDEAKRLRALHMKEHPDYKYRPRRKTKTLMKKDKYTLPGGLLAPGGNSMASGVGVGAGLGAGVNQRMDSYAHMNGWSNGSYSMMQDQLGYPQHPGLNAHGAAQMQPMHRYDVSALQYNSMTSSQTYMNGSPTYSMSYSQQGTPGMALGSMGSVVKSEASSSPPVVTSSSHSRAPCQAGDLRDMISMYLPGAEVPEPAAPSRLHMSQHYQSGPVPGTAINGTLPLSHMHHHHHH
Assay: 96-well ELISA screening of individual colonies, 20 ug/mL huSOX2

| Binder | binding result |
| --- | --- |
| B5 | binds |
| B6 | binds |
| B7 | binds |
| B8 | binds |
| B9 | binds |
| B10 | binds |
| B11 | binds |
| B12 | binds |
| B13 | binds |

Biological target: T3, huSOX2 protein with N-terminal Halo tag (pHTN vector), expressed in HEK293T cells (human, UniProt P48431 1-317, HaloTag 618 ligand bound to the Halo tag)
T3 construct: Expressed inside HEK293T cells (NanoBRET); not shown: Halo tag
T3 sequence (P48431 whole entry): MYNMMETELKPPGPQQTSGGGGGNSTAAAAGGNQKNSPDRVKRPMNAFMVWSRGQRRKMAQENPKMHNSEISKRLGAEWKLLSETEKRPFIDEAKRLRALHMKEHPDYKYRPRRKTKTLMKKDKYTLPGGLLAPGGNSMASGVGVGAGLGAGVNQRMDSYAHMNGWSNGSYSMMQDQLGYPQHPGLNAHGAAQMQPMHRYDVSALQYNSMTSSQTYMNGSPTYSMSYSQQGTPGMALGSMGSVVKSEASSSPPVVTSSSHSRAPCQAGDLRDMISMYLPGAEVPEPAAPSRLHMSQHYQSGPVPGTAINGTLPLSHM
Assay: NanoBRET in HEK293T cells, NanoLuc-VHH and Halo-huSOX2

| Binder | binding result |
| --- | --- |
| B14 | binds |
| B15 | binds |
| B16 | binds |

Biological target: T2, human SRY-box transcription factor 2 …
Assay: selection from a naive sdAb phage display library, three rounds of panning

| Binder | binding result |
| --- | --- |
| B17 | binds |

Biological target: CynoSOX2 with C-terminal 6×His-tag, produced by Biointron (cyno, UniProt P48431 45-317 (human entry), limits assumed)
Sequence (P48431 other isoform, or with tags, fused parts or gaps limits assumed): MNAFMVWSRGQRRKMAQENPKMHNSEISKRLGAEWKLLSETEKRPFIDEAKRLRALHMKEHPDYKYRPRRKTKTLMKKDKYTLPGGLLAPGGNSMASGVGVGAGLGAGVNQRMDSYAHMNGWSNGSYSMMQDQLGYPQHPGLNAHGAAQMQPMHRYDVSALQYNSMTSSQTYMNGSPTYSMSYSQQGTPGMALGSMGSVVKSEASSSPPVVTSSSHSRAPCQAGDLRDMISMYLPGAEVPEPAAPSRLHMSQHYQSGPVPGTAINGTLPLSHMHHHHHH
Assay: as above

| Binder | binding result |
| --- | --- |
| B17 | binds |

Biological target: T1, huSOX3 with C-terminal 6×His-tag, …
Assay: as above

| Binder | binding result |
| --- | --- |
| B17 | no binding |
